Experimental data as given in PMC6177315 (Biochemistry, 2018).
Where two headings read alike, the source gives them in different places. Where no end group is shown, it is not given here.

B1: eIF5_(196–431) (GH-eIF5-CTD) (domain or fragment, human, UniProt P55010 196-431, looked up)
chain: EEEEDDDWGEDTTEEAQRRRMDEISDHAKVLTLSDDLERTIEERVNILFDFVKKKKEEGVIDSSDKEIVAEAERLDVKAMGPLVLTEVLFNEKIREQIKKYRRHFLRFCHNNKKAQRYLLHGLECVVAMHQAQLISKIPHILKEMYDADLLEEEVIISWSEKASKKYVSKELAKEIRVKAEPFIKWLKEAEEESSGGEEEDEDENIEVVYSKAASVPKVETVKSDNKDDDIDIDAI
B2: human eIF5B_(1076–1220), comprising domain 4 (GH-eIF5B-D4) (domain or fragment, UniProt O60841 1076-1220, looked up)
chain: YKKQKQEEFKHIAVFPCKIKILPQYIFNSRDPIVMGVTVEAGQVKQGTPMCVPSKNFVDIGIVTSIEINHKQVDVAKKGQEVCVKIEPIPGESPKMFGRHFEATDILVSKISRQSIDALKDWFRDEMQKSDWQLIVELKKVFEII
B3: human eIF5B_(951–1220), comprising domains 3 and 4 (GH-eIF5B-D34) (domain or fragment, UniProt O60841 951-1220, looked up)
chain: YKEDEIPVLKDELIHELKQTLNAIKLEEKGVYVQASTLGSLEALLEFLKTSEVPYAGINIGPVHKKDVMKASVMLEHDPQYAVILAFDVRIERDAQEMADSLGVRIFSAEIIYHLFDAFTKYRQDYKKQKQEEFKHIAVFPCKIKILPQYIFNSRDPIVMGVTVEAGQVKQGTPMCVPSKNFVDIGIVTSIEINHKQVDVAKKGQEVCVKIEPIPGESPKMFGRHFEATDILVSKISRQSIDALKDWFRDEMQKSDWQLIVELKKVFEII

Columns and labels:
Assay in all cases: fluorescence polarisation
[1] = molecular target: B3
[2] = molecular target: B2
[3] = molecular target: Full-length human eIF5 (GH-eIF5) (human, UniProt P55010 1-431)
[4] = molecular target: B1
[5] = molecular target: B3; remark: listed apart in the source
[6] = molecular target: B2; remark: listed apart in the source

Which results are given for EEEDEDENIEVVYSKAASVPKVETVKSDNKDDDIDIDAI (peptide, UniProt P55010 393-431, looked up) [eIF5 fragment comprising the C-terminal 39 residues (eIF5-CT39)]?
Kd [1]: 1100 nM; Kd [2]: 500 nM

Which Kd [1] does the source give for B1 here?
The Kd was 720 nM.

With B2 as the binder, how does the Kd [3] read?
The Kd was 370 nM.

What about the Kd [4] of the same binder?
Its Kd is 370 nM.

For B3, which Kd [3] is on record?
The Kd was 510 nM.

What does the source list for DDDIDIDAI (peptide, UniProt P55010 423-431, looked up) [eIF5 fragment comprising the C-terminal 9 residues (eIF5-CT9)]?
Kd [1]: 1200 nM; Kd [2]: 740 nM

With DIDIDAI (peptide, UniProt P55010 425-431, looked up, also: fluorescein label, position not given here) [fluorescein-labeled 7-residue eIF5 C-terminal peptide (Fl-eIF5-CT7)] as the binder, how does the Kd [5] read?
The Kd was 2400 nM.

And the Kd [6]?
The Kd was 1400 nM.
